T1: cynomolgus 5T4 on cells (cynomolgus macaque, UniProt Q4R8Y9 35-420)
T1 construct: whole, on cells; also called CHO-K1/cynomolgus 5T4 transfectants
T1 sequence (looked up): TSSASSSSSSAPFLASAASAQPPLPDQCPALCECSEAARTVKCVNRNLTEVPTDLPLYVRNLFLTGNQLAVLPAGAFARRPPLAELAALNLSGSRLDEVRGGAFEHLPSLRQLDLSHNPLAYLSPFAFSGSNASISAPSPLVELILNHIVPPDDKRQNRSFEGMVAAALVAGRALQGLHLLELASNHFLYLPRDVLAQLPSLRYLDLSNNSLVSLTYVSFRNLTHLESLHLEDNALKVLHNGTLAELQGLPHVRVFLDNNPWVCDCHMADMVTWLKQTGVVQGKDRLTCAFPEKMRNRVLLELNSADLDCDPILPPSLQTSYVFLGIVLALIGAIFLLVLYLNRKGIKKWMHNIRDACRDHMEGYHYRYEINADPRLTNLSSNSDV

T2: human 5T4 on cells (human, UniProt Q13641 32-420)
T2 construct: also called TPBG; hu5T4
T2 sequence: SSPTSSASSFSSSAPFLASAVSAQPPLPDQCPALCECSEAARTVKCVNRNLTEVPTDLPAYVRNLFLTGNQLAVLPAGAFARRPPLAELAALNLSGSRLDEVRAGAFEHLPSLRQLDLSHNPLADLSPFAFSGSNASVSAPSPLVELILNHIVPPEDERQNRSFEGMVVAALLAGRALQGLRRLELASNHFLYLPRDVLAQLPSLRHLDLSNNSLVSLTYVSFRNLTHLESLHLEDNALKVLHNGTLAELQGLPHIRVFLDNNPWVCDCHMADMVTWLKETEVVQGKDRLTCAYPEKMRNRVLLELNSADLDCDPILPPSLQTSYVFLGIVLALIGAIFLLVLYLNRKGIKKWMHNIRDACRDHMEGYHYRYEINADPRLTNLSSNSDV


Key:
human CD137 on cells [1] = target: T3, human CD137 on cells (human, UniProt Q07011 24-255); assay: cell-based or functional assay
cynomolgus 5T4 on cells = target: T1, cynomolgus 5T4 on cells; assay: flow cytometry, CHO-K1 cells expressing cynomolgus 5T4, labelled anti-human IgG secondary, MFI (median)
Procedure: (§1) Binding studies were performed by standard flow cytometry-based staining procedures two cell lines expressing 5T4:CHO-K1 cells (obtained from Alligator) transduced with human or cynomolgus macaque 5T4 and SKOV-3 human ovarian adenocarcinoma cells which express (human) 5T4. All labeling and washes were performed in U-bottom 96-well plates in saline buffer with 0.1% BSA and 2 mM EDTA. Cell were plated at approximately 100,000 cells per well and incubated with a range of 100 nM to 0.05 nM concentrations of test molecules in […], for 30 minutes on ice. Cells were washed three times then incubated for another 30 min on ice with fluorescently-labeled secondary polyclonal antibody, F(ab′)² goat anti-human IgG (Jackson ImmunoResearch Laboratories). The cells were then washed twice and the samples acquired in a BD LSRII or a Symphony A3 flow cytometer. The sample files were analyzed using FlowJo software; the mean fluorescence intensity (MFI-mean) or median fluorescence intensity (MFI-median) of the live population of cells in each well was calculated after gating on live cells (forward vs side scatter). Nonlinear regression analysis to determine EC₅₀ values was performed in GraphPad Prism 6® graphing and statistics software.

human 5T4 on cells [2] = target: T2, human 5T4 on cells; assay: flow cytometry, CHO-K1 cells expressing human 5T4, labelled anti-human IgG secondary, MFI (mean)
Procedure: as §1

human CD137 on cells [3] = target: T3, human CD137 on cells; assay: flow cytometry, CHO-K1 cells expressing human CD137, PE anti-human IgG Fc secondary, MFI (median)
Procedure: (§2) Binding studies on CHO-K1 cells lines expressing CD137 were performed by standard flow cytometry-based staining procedures. CHO-K1 cells (generated by Alligator) were transfected with human or cynomolgus macaque CD137. A typical experiment would label approximately 100,000 cells per well, in 96-well plates, with a range of 100 nM to 0.05 nM binding molecule in 50 μL of saline buffer with 2% BSA and 2 mM EDTA, for 30 min on ice, followed by washes and incubation with PE-labeled secondary antibody, goat anti-human IgG Fcγ ([…]), for 20 minutes on ice. Signal from bound molecules was detected using a LSR-II™ or a Symphony A3 flow cytometer (BD Biosciences) and analyzed by FlowJo flow cytometry analysis software. Median fluorescence intensity (MFI-median) of bound molecules on live cells was determined after exclusion of doublets cells. Nonlinear regression analysis to determine EC₅₀ values was performed in GraphPad Prism 6® graphing and statistics software.

[4] = target: T4, cynomolgus CD137 on cells (cynomolgus macaque, UniProt A9YYE7 24-254); assay: flow cytometry, CHO-K1 cells expressing cynomolgus CD137, PE anti-human IgG Fc secondary, MFI (median)
T4 construct: whole, on cells; also called CHO-K1/cynomolgus CD137 cell line; cynomolgus monkey CD137 on CD3-stimulated primary CD8 T cells
Procedure: as §2

human 5T4 on cells [5] = target: T2, human 5T4 on cells; assay: flow cytometry, SKOV-3 cells (endogenous human 5T4), labelled anti-human IgG secondary, MFI (mean)
Procedure: as §1

T3 sequence (Q07011 24-255 limits assumed): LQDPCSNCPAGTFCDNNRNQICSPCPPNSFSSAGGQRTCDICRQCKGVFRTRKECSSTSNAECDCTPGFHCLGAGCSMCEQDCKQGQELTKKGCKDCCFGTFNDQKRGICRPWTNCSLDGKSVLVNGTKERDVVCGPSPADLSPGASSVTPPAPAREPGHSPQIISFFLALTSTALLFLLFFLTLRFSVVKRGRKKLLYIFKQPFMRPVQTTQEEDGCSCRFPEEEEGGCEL
T4 sequence (A9YYE7 entry or part of it): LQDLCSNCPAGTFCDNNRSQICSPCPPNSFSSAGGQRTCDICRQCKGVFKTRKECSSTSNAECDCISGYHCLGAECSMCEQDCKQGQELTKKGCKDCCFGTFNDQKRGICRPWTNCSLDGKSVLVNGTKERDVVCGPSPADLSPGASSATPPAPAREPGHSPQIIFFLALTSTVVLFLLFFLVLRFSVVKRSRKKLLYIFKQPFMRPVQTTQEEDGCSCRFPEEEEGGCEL

Row | CD137 reporter assay with HCC1143 cells, EC50 against ALG.APV-006 and ALG.APV-004 (human CD137 on cells [1]) [fold lower EC50] | EC50 (cynomolgus 5T4 on cells) [nM] | Maximum MFI (cynomolgus 5T4 on cells) | EC50 (human 5T4 on cells [2]) [nM] | Maximum MFI (human 5T4 on cells [2]) | EC50 (human CD137 on cells [3]) [nM] | EC50 [4] [nM] | EC50 (human 5T4 on cells [5]) [nM] | Maximum MFI (human 5T4 on cells [5]) | Binder
1 | ≤ 6 | 22 | 25100 | 10.9 | 14100 | 1.1 | 1.7 | – | – | ALG.APV-191 (bispecific antibody, Optimized ADAPTIR scFv-Fc-scFv homodimer) EVQLLESGGGLVQPGGSLRLSCAASGFTFDYGSMYWVRQAPGKGLEWVSSISSGSGSTYYADSVKGRFTISHDNSKNTLYLQMNSLRAEDTAVYYCARSSYYGSYYSIDYWGQGTLVTVSSGGGGSGGGGSGGGGSGGGGSDIQMTQSPSSLSASVGDRVTITCRASQSISSYLNWYQQKPGKAPKLLIYAASSLHSGVPSRFSGSGSGTDFTLTISSLQPEDFATYYCQQYYDNLPTFGQGTKLEIKSSEPKSSDKTHTCPPCPAPEAAGAPSVFLFPPKPKDTLMISRTPEVTCVVVDVSHEDPEVKFNWYVDGVEVHNAKTKPREEQYNSTYRVVSVLTVLHQDWLNGKEYKCAVSNKALPAPIEKTISKAKGQPREPQVYTLPPSRDELTKNQVSLTCLVKGFYPSDIAVEWESNGQPENNYKTTPPVLDSDGSFFLYSKLTVDKSRWQQGNVFSCSVMHEALHNHYTQKSLSLSPGSGGGGSGGGGSGGGGSPSEVQLLESGGGLVQPGGSLRLSCAASGFTFSSYAMSWVRQAPGKCLEWVSAISGSGGSTYYADSVKGRFTISRDNSKNTLYLQMNSLRAEDTAVYYCARYYGGYYSAWMDYWGQGTLVTVSSGGGGSGGGGSGGGGSGGGGSDIQMTQSPSSLSASVGDRVTITCRASQSISSFLNWYQQKPGKAPKLLIYAASSLQSGVPSRFSGSGSGTDFTLTISSLQPEDFATYYCQQTYGYLHTFGCGTKLEIKS
2 | ≤ 6 | 7 | 20600 | 3.1 | 13200 | 1 | 1.8 | 1.8 | 1070 | ALG.APV-198 (bispecific antibody, Optimized ADAPTIR scFv-Fc-scFv homodimer) EVQLLESGGGLVQPGGSLRLSCAASGFTFSHGSMYWVRQAPGKGLEWVSSISSGSGSTYYADSVKGRFTISHDNSKNTLYLQMNSLRAEDTAVYYCARSSYYGSYYSIDYWGQGTLVTVSSGGGGSGGGGSGGGGSGGGGSDIQMTQSPSSLSASVGDRVTITCRASQSISSYLNWYQQKPGKAPKLLIYAASSLQSGVPSRFSGSGSGTDFTLTISSLQPEDFATYYCQQYYDNLPTFGQGTKLEIKSSEPKSSDKTHTCPPCPAPEAAGAPSVFLFPPKPKDTLMISRTPEVTCVVVDVSHEDPEVKFNWYVDGVEVHNAKTKPREEQYNSTYRVVSVLTVLHQDWLNGKEYKCAVSNKALPAPIEKTISKAKGQPREPQVYTLPPSRDELTKNQVSLTCLVKGFYPSDIAVEWESNGQPENNYKTTPPVLDSDGSFFLYSKLTVDKSRWQQGNVFSCSVMHEALHNHYTQKSLSLSPGSGGGGSGGGGSGGGGSPSEVQLLESGGGLVQPGGSLRLSCAASGFDFESYAMSWVRQAPGKCLEWVSAISGSGGSTYYADSVKGRFTISRDNSKNTLYLQMNSLRAEDTAVYYCARYYGGYYSAWMDYWGQGTLVTVSSGGGGSGGGGSGGGGSGGGGSDIQMTQSPSSLSASVGDRVTITCRASQSIRSALNWYQQKPGKAPKLLIYAASSLQSGVPSRFSGSGSGTDFTLTISSLQPEDFATYYCQQTYGYLHTFGCGTKLEIKR
3 | ≤ 6 | 7 | 21100 | 3.4 | 13500 | 0.9 | 1.8 | 1.7 | 1130 | ALG.APV-196 (bispecific antibody, Optimized ADAPTIR scFv-Fc-scFv homodimer) EVQLLESGGGLVQPGGSLRLSCAASGFTFSYGSMYWVRQAPGKGLEWVSSISSGSGSTYYADSVKGRFTISHDNSKNTLYLQMNSLRAEDTAVYYCARSSYYGSYYSIDYWGQGTLVTVSSGGGGSGGGGSGGGGSGGGGSDIQMTQSPSSLSASVGDRVTITCRASQSISSYLNWYQQKPGKAPKLLIYAASSLQSGVPSRFSGSGSGTDFTLTISSLQPEDFATYYCQQYYDNLPTFGQGTKLEIKSSEPKSSDKTHTCPPCPAPEAAGAPSVFLFPPKPKDTLMISRTPEVTCVVVDVSHEDPEVKFNWYVDGVEVHNAKTKPREEQYNSTYRVVSVLTVLHQDWLNGKEYKCAVSNKALPAPIEKTISKAKGQPREPQVYTLPPSRDELTKNQVSLTCLVKGFYPSDIAVEWESNGQPENNYKTTPPVLDSDGSFFLYSKLTVDKSRWQQGNVFSCSVMHEALHNHYTQKSLSLSPGSGGGGSGGGGSGGGGSPSEVQLLESGGGLVQPGGSLRLSCAASGFDFESYAMSWVRQAPGKCLEWVSAISGSGGSTYYADSVKGRFTISRDNSKNTLYLQMNSLRAEDTAVYYCARYYGGYYSAWMDYWGQGTLVTVSSGGGGSGGGGSGGGGSGGGGSDIQMTQSPSSLSASVGDRVTITCRASQSIRSALNWYQQKPGKAPKLLIYAASSLQSGVPSRFSGSGSGTDFTLTISSLQPEDFATYYCQQTYGYLHTFGCGTKLEIKR
